Consider 15 proteins from doi:10.1101/2020.12.21.423144 (bioRxiv, 2020).

Numbering of substitutions follows the chain as printed. Names and notes keep the numbering of the source. “Also recorded” adds a separate entry of the source.

The series “SEC” concerns the molecule itself. As to the kind of experiment: SEC. On the technique in general: In gel filtration, larger molecules generally elute earlier.
Another series has as its target P29274. Kind of series: SEC.
Series [1] deals with the molecule itself. Kind of series: SDS-PAGE and Western blot densitometry. A general note: Immunoblotting shows a protein as a band on a membrane.

B1: A2AR-G344ΔC (domain or fragment)
chain: MPIMGSSVYITVELAIAVLAILGNVLVCWAVWLNSNLQNVTNYFVVSLAAADIAVGVLAIPFAITISTGFCAACHGCLFIACFVLVLTQSSIFSLLAIAIDRYIAIRIPLRYNGLVTGTRAKGIIAICWVLSFAIGLTPMLGWNNCGQPKEGKNHSQGCGEGQVACLFEDVVPMNYMVYFNFFACVLVPLLLMLGVYLRIFLAARRQLKQMESQPLPGERARSTLQKEVHAAKSLAIIVGLFALCWLPLHIINCFTFFCPDCSHAPLWLMYLAIVLSHTNSVVNPFIYAYRIREFRQTFRKIIRSHVLRQQEPFKAAGTSARVLAAHGSDGEQVSLRLNGHPPG
Consider B1, for which the binding result in the series “SEC” is recorded as “binds”.

B2: A2AR-Q372ΔC (domain or fragment)
chain: MPIMGSSVYITVELAIAVLAILGNVLVCWAVWLNSNLQNVTNYFVVSLAAADIAVGVLAIPFAITISTGFCAACHGCLFIACFVLVLTQSSIFSLLAIAIDRYIAIRIPLRYNGLVTGTRAKGIIAICWVLSFAIGLTPMLGWNNCGQPKEGKNHSQGCGEGQVACLFEDVVPMNYMVYFNFFACVLVPLLLMLGVYLRIFLAARRQLKQMESQPLPGERARSTLQKEVHAAKSLAIIVGLFALCWLPLHIINCFTFFCPDCSHAPLWLMYLAIVLSHTNSVVNPFIYAYRIREFRQTFRKIIRSHVLRQQEPFKAAGTSARVLAAHGSDGEQVSLRLNGHPPGVWANGSAPHPERRPNGYALGLVSGGSAQ
Regarding B2, the binding result in the series “SEC” is “binds”.

B3: A2AR-N359ΔC (protein)
chain: MPIMGSSVYITVELAIAVLAILGNVLVCWAVWLNSNLQNVTNYFVVSLAAADIAVGVLAIPFAITISTGFCAACHGCLFIACFVLVLTQSSIFSLLAIAIDRYIAIRIPLRYNGLVTGTRAKGIIAICWVLSFAIGLTPMLGWNNCGQPKEGKNHSQGCGEGQVACLFEDVVPMNYMVYFNFFACVLVPLLLMLGVYLRIFLAARRQLKQMESQPLPGERARSTLQKEVHAAKSLAIIVGLFALCWLPLHIINCFTFFCPDCSHAPLWLMYLAIVLSHTNSVVNPFIYAYRIREFRQTFRKIIRSHVLRQQEPFKAAGTSARVLAAHGSDGEQVSLRLNGHPPGVWANGSAPHPERRPN
Turning to B3, in the series with P29274, the “HMW oligomer level (relative to monomer)” value is on record as “ctrl: 0.68”; the “total oligomer level (HMW oligomer and dimer, relative to monomer)” value was “ctrl: 1.01”.

B4: A2AR-N359ΔC with the ERR:AAA mutations (domain or fragment)
chain: B3 chain with E355A, R356A, R357A
For the protein B4, in the series with P29274, the “HMW oligomer level (relative to monomer)” value is “ERR:AAA: 0.38”; the “total oligomer level (HMW oligomer and dimer, relative to monomer)” value is listed as “ERR:AAA: 0.85”. In addition, the “dimer level (relative to monomer)” value in the series “SEC” stood at 0.48 arbitrary units.

B5: human adenosine A2A receptor, full-length wild type (receptor)
chain: MPIMGSSVYITVELAIAVLAILGNVLVCWAVWLNSNLQNVTNYFVVSLAAADIAVGVLAIPFAITISTGFCAACHGCLFIACFVLVLTQSSIFSLLAIAIDRYIAIRIPLRYNGLVTGTRAKGIIAICWVLSFAIGLTPMLGWNNCGQPKEGKNHSQGCGEGQVACLFEDVVPMNYMVYFNFFACVLVPLLLMLGVYLRIFLAARRQLKQMESQPLPGERARSTLQKEVHAAKSLAIIVGLFALCWLPLHIINCFTFFCPDCSHAPLWLMYLAIVLSHTNSVVNPFIYAYRIREFRQTFRKIIRSHVLRQQEPFKAAGTSARVLAAHGSDGEQVSLRLNGHPPGVWANGSAPHPERRPNGYALGLVSGGSAQESQGNTGLPDVELLSHELKGVCPEPPGLDDPLAQDGAGVS
As to B5, in the series with P29274, the “HMW oligomer level (relative to monomer)” value is “ctrl: 0.88”; the “total oligomer level (HMW oligomer and dimer, relative to monomer)” value is “ctrl: 1.37; also recorded: WT: 1.34”. Further, in series [1], the “dimer level (relative to monomer), with 5 mM TCEP” value stood at 0.51 arbitrary units and the “dimer level (relative to monomer), without TCEP” value came to 1.14 arbitrary units.

B6: A2AR-C394S (receptor)
chain: B5 chain with C394S
As for B6, in the series “SEC”, the binding result is “binds”.

B7: A2AR-C394A (receptor)
chain: B5 chain with C394A
B7: the binding result in the series “SEC” is on record as “binds”.

B8: A2AR-C394V (receptor)
chain: B5 chain with C394V
For the protein B8, the binding result in the series “SEC” is “binds”.

B9: A2AR-C394M (receptor)
chain: B5 chain with C394M
For B9, the binding result in “SEC” is given as “binds”.

B10: A2AR-FL-ERR:AAA (receptor)
chain: B5 chain with E355A, R356A, R357A
In the case of B10, in the series with P29274, the “HMW oligomer level (relative to monomer)” value is given as “ERR:AAA: 0.66”; the “total oligomer level (HMW oligomer and dimer, relative to monomer)” value is “ERR:AAA: 0.94”. For the same protein, the “dimer level (relative to monomer)” value in the series “SEC” is 0.29 arbitrary units.

B11: A2AR-C394L (receptor)
chain: B5 chain with C394L
For the protein B11, the binding result in the series “SEC” was “binds”.

B12: A2AR-V334ΔC (domain or fragment)
chain: MPIMGSSVYITVELAIAVLAILGNVLVCWAVWLNSNLQNVTNYFVVSLAAADIAVGVLAIPFAITISTGFCAACHGCLFIACFVLVLTQSSIFSLLAIAIDRYIAIRIPLRYNGLVTGTRAKGIIAICWVLSFAIGLTPMLGWNNCGQPKEGKNHSQGCGEGQVACLFEDVVPMNYMVYFNFFACVLVPLLLMLGVYLRIFLAARRQLKQMESQPLPGERARSTLQKEVHAAKSLAIIVGLFALCWLPLHIINCFTFFCPDCSHAPLWLMYLAIVLSHTNSVVNPFIYAYRIREFRQTFRKIIRSHVLRQQEPFKAAGTSARVLAAHGSDGEQV
For the protein B12, in “SEC”, the binding result is recorded as “binds”.

B13: A2AR-G349ΔC (domain or fragment)
chain: MPIMGSSVYITVELAIAVLAILGNVLVCWAVWLNSNLQNVTNYFVVSLAAADIAVGVLAIPFAITISTGFCAACHGCLFIACFVLVLTQSSIFSLLAIAIDRYIAIRIPLRYNGLVTGTRAKGIIAICWVLSFAIGLTPMLGWNNCGQPKEGKNHSQGCGEGQVACLFEDVVPMNYMVYFNFFACVLVPLLLMLGVYLRIFLAARRQLKQMESQPLPGERARSTLQKEVHAAKSLAIIVGLFALCWLPLHIINCFTFFCPDCSHAPLWLMYLAIVLSHTNSVVNPFIYAYRIREFRQTFRKIIRSHVLRQQEPFKAAGTSARVLAAHGSDGEQVSLRLNGHPPGVWANG
For the protein B13, the binding result in the series “SEC” is “binds”.

B14: A2AR-P354ΔC (domain or fragment)
chain: MPIMGSSVYITVELAIAVLAILGNVLVCWAVWLNSNLQNVTNYFVVSLAAADIAVGVLAIPFAITISTGFCAACHGCLFIACFVLVLTQSSIFSLLAIAIDRYIAIRIPLRYNGLVTGTRAKGIIAICWVLSFAIGLTPMLGWNNCGQPKEGKNHSQGCGEGQVACLFEDVVPMNYMVYFNFFACVLVPLLLMLGVYLRIFLAARRQLKQMESQPLPGERARSTLQKEVHAAKSLAIIVGLFALCWLPLHIINCFTFFCPDCSHAPLWLMYLAIVLSHTNSVVNPFIYAYRIREFRQTFRKIIRSHVLRQQEPFKAAGTSARVLAAHGSDGEQVSLRLNGHPPGVWANGSAPHP
In the case of B14, the “dimer level (relative to monomer)” value in “SEC” is 0.19 arbitrary units.

B15: A2AR-P395ΔC (domain or fragment)
chain: MPIMGSSVYITVELAIAVLAILGNVLVCWAVWLNSNLQNVTNYFVVSLAAADIAVGVLAIPFAITISTGFCAACHGCLFIACFVLVLTQSSIFSLLAIAIDRYIAIRIPLRYNGLVTGTRAKGIIAICWVLSFAIGLTPMLGWNNCGQPKEGKNHSQGCGEGQVACLFEDVVPMNYMVYFNFFACVLVPLLLMLGVYLRIFLAARRQLKQMESQPLPGERARSTLQKEVHAAKSLAIIVGLFALCWLPLHIINCFTFFCPDCSHAPLWLMYLAIVLSHTNSVVNPFIYAYRIREFRQTFRKIIRSHVLRQQEPFKAAGTSARVLAAHGSDGEQVSLRLNGHPPGVWANGSAPHPERRPNGYALGLVSGGSAQESQGNTGLPDVELLSHELKGVCP
As for B15, the binding result in the series “SEC” is recorded as “binds”.
